The subject of experiment [1] is CSAp antigen. As to the kind of experiment: Competitive Binding Assay against HRP-conjugated Mu-9. On the set-up: species or system human. The settings on record: for Competition with the binding of HRP-conjugated Mu-9 to the CSAp antigen: antigen-coated wells, competing antibody 0-50 μg/ml; for Binding affinity to CSAp antigen compared with murine Mu-9: see Example 8-9. As for the experimental part:
Murine Mu-9 IgG was conjugated with horseradish peroxidase (HRP) (Sigma). The peroxidase-conjugated Mu-9 was first tested for binding on microwells coated with CSAp antigen, and the optimum concentration was determined to be 0.2 μg/ml. Peroxidase-conjugated Mu-9 was mixed with various concentrations of either murine or chimeric Mu-9 (0-50 μg/ml) before addition to the antigen-coated wells. Binding of the peroxidase-conjugated Mu-9 to the antigen in the presence of the competing antibodies was measured at 490 nm after the addition of the substrate as described earlier.
The binding affinity of hMu-9 was compared in a competitive binding assay as described in Example 6.

The subject of experiment [2] is CSAp antigen. Kind of experiment: Mu-9 Direct Binding Assay (ELISA). The settings on record: wells coated with GW-39 tumor extract fraction, murine Mu-9 as standard. Also noted: species or system human. As for the experimental part: Chimeric antibody supernatant (100 μl) or purified antibody (0-1 μg/ml) was added and incubated at room temperature for 1 hour. Unbound proteins were removed by washing six times with wash buffer (PBS containing 0.05% Tween 20). Purified murine Mu-9 protein was used as the standard. The bound antibodies were allowed to react with peroxidase-conjugated goat anti-human IgG, Fc fragment-specific (Jackson ImmunoResearch, West Grove Pa.) and peroxidase conjugated goat anti-mouse IgG, Fc fragment-specific antibodies (Jackson ImmunoResearch). […] The color was developed in the dark for 1 hour, the reaction was stopped with 50 μl of 4NH2SO4, and the absorbance at 490 nm was measured in a Dynatech plate reader (Dynatech Labs, Sussex, UK).
The methods for expression and binding activity assays for hMu9 were same as described for cMu9. Approximately 10 and 30 μg of linearized hMu9VkpKh and hMu9VHpG1g were co-transfected into SP2/0 cells by electroporation. Transfected cells were grown in 96-well cell culture plates in complete medium for 2 days and then selected by the addition of hygromycin at a final concentration of 500 U/ml. Typically, the colonies began to emerge 2-3 weeks after electroporation and were assayed for antibody secretion by enzyme-linked immunosorbent assay (ELISA). […] The purified antibodies (5 μg) were analyzed by SDS-PAGE on a 4-20% gradient gel under reducing conditions.
(In general: In an ELISA, binding on a coated surface is turned into a signal by an enzyme label.)

B1: murine Mu-9: murine monoclonal antibody of the IgG1 subtype, directed against the colon-specific antigen-p mucin (CSAp) (antibody, listed as Murine sp., V domains shown)
VH: VQLQESGPELVKPGASVKMSCRASGYTFTEYVITWVKQRTGQGLEWIGEIYPGSGSTSYNEKFKGKATLTADKSSNTAYMHLSSLTSEDSAVYFCTREDLGGQGTLVTVSS
VL: AVLMTQTPLSLPVSLGDQASISCRSSQSIVHSNGNTYLEWYLQKPGQSPKLLIYKVSNRFSGVPDRFSGTGSGTDFTVRISRVEAEDLGLYYCFQGSRVPYTFGGGTKLEIK
modifications: murine IgG1 constant regions
For B1, the “Competition with the binding of HRP-conjugated Mu-9 to the CSAp antigen” value in the experiment on CSAp antigen [1] was “competed equally well”.

B2: cMu-9-2: chimeric Mu-9 constructed from the VH and Vk2 and expressed in Sp2/0 cells (antibody, V domains shown)
VH: QVQLQESGPELVKPGASVKMSCRASGYTFTEYVITWVKQRTGQGLEWIGEIYPGSGSTSYNEKFKGKATLTADKSSNTAYMHLSSLTSEDSAVYFCTREDLGGQGTLVTVSS
VL: DILQTQTPLSLPVSLGDQASISCRSSQSIVHSNGNTYLEWYLQKPGQSPKLLIYKVSNRFSGVPDRFSGTGSGTDFTVRISRVEAEDLGLYYCFQGSRVPYTFGGGTKLEIKR
modifications: human constant regions
notes: chimeric Mu-9 constructed from the VH and Vk2 and expressed in Sp2/0 cells
Take B2: the results for the “Direct binding to CSAp antigen” value in the experiment with CSAp antigen [2] and in the experiment with CSAp antigen [2] (listed as cMu-9) were “virtually superimposable on that of the murine Mu-9” and “bound avidly to the CSAp antigen”, respectively. Besides, the “Competition with the binding of HRP-conjugated Mu-9 to the CSAp antigen” value in the experiment on CSAp antigen [1] was “competed equally well”. Besides, the “Binding affinity to CSAp antigen compared with murine Mu-9” value with CSAp antigen [1] is given as “comparable binding affinity to CSAp antigen as that of murine Mu-9”; in the experiment on CSAp antigen [1] (listed as cMu-9), “comparable to that of its murine counterpart”.

(Values after patent US7641891B2, “Chimeric, human and humanized anti-CSAp monoclonal antibodies” (Immunomedics, Inc., priority 1998, dated 2010).)
